Measurements taken from publication PMC6883073, “Unraveling Determinants of Affinity Enhancement in Dimeric Aptamers for a Dimeric Protein”.

How the values were obtained:
VEGF-165 [1] = target: T1, VEGF-165 (UniProt P15692-4 27-191); assay: competition; displaces fA; 10 nM VEGF-165; PBS + 0.005% Tween 20, pH 7.4 (+50 mM KCl for aptamer B); 2.5 nM aptamer heated at 90 C and cooled, 1 h incubation (temperature not stated, RT?); 7.5% PAGE in 0.5x TB pH 8.3 at 4 C; details: protein: recombinant; tags: His-tag; chain copies: 2
VEGF-121 = VEGF-121 (UniProt P15692-9 27-147); assay: EMSA; up to 333.3 nM VEGF-121; PBS + 0.005% Tween 20, pH 7.4 (+50 mM KCl for aptamer B); 2.5 nM aptamer heated at 90 C and cooled, 1 h incubation (temperature not stated, RT?); 7.5% PAGE in 0.5x TB pH 8.3 at 4 C; details: protein: recombinant; tags: His-tag; chain copies: 2; label: 5' fluorescein
VEGF-165 [2] = target: T1, VEGF-165; assay: EMSA; PBS + 0.005% Tween 20, pH 7.4 (+50 mM KCl for aptamer B); 2.5 nM aptamer heated at 90 C and cooled, 1 h incubation (temperature not stated, RT?); 7.5% PAGE in 0.5x TB pH 8.3 at 4 C; details: protein: recombinant; tags: His-tag; chain copies: 2; label: 5' fluorescein
VEGF-165 [3] = target: T1, VEGF-165; assay: EMSA; top band only (1 aptamer:2 protein), apparent; PBS + 0.005% Tween 20, pH 7.4 (+50 mM KCl for aptamer B); 2.5 nM aptamer heated at 90 C and cooled, 1 h incubation (temperature not stated, RT?); 7.5% PAGE in 0.5x TB pH 8.3 at 4 C; details: protein: recombinant; tags: His-tag; chain copies: 2; label: 5' fluorescein
VEGF-165 [4] = target: T1, VEGF-165; assay: EMSA; middle + top bands combined; PBS + 0.005% Tween 20, pH 7.4 (+50 mM KCl for aptamer B); 2.5 nM aptamer heated at 90 C and cooled, 1 h incubation (temperature not stated, RT?); 7.5% PAGE in 0.5x TB pH 8.3 at 4 C; details: protein: recombinant; tags: His-tag; chain copies: 2; label: 5' fluorescein
VEGF-165 [5] = target: T1, VEGF-165; assay: EMSA; 10 nM VEGF-165; PBS + 0.005% Tween 20, pH 7.4 (+50 mM KCl for aptamer B); 2.5 nM aptamer heated at 90 C and cooled, 1 h incubation (temperature not stated, RT?); 7.5% PAGE in 0.5x TB pH 8.3 at 4 C; details: protein: recombinant; tags: His-tag; chain copies: 2; label: 5' fluorescein
VEGF-165 [6] = target: T1, VEGF-165; assay: competition; displaces fC; 50 nM VEGF-165; PBS + 0.005% Tween 20, pH 7.4 (+50 mM KCl for aptamer B); 2.5 nM aptamer heated at 90 C and cooled, 1 h incubation (temperature not stated, RT?); 7.5% PAGE in 0.5x TB pH 8.3 at 4 C; details: protein: recombinant; tags: His-tag; chain copies: 2
VEGF-165 [7] = target: T1, VEGF-165; assay: EMSA; 10 nM VEGF-165; PBS + 0.005% Tween 20, pH 7.4 (+50 mM KCl for aptamer B); 2.5 nM aptamer heated at 90 C and cooled, 1 h incubation (temperature not stated, RT?); 7.5% PAGE in 0.5x TB pH 8.3 at 4 C; details: protein: recombinant; tags: His-tag; chain copies: 2; label: 5' fluorescein; remark: listed apart in the source
VEGF-165 [8] = target: T1, VEGF-165; assay: EMSA; curve superimposed on AT10C; PBS + 0.005% Tween 20, pH 7.4 (+50 mM KCl for aptamer B); 2.5 nM aptamer heated at 90 C and cooled, 1 h incubation (temperature not stated, RT?); 7.5% PAGE in 0.5x TB pH 8.3 at 4 C; details: protein: recombinant; tags: His-tag; chain copies: 2; label: 5' fluorescein

T1 sequence (P15692 other isoform, or with tags, fused parts or gaps): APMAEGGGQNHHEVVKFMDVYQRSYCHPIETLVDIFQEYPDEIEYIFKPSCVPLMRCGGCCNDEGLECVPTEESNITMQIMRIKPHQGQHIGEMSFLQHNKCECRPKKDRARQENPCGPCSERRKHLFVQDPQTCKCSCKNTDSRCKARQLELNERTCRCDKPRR
Sequence of VEGF-121 (P15692 other isoform, or with tags, fused parts or gaps): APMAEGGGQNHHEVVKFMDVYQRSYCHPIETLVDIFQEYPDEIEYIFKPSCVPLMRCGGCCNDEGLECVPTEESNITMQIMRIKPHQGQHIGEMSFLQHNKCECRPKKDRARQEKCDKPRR

B1: nfAT100 (structured_DNA)
DNA: GCCCGTCTTCCAGACAAGAGTGCAGGGCTTTTTTTTTTTTTTTTTTTTTTTTTTTTTTTTTTTTTTTTTTTTTTTTTTTTTTTTTTTTTTTTTTTTTTTTTTTTTTTTTTTTTTTTTTTTTTTTTTTT
binding result (VEGF-165 [1]): binds

GCCCGTCTTCCAGACAAGAGTGCAGGGC (structured_DNA) [fA (+5'GC+3'C)]
binding result (VEGF-121): no binding
Kd (VEGF-165 [2]): 9.9 ± 1.3 nM

B2: AT20A (structured_DNA)
DNA: GCCCGTCTTCCAGACAAGAGTGCAGGGCTTTTTTTTTTTTTTTTTTTTGCCCGTCTTCCAGACAAGAGTGCAGGGC
Kd (VEGF-165 [3]): 145 ± 11.6 nM
Kd (VEGF-165 [4]): 5.5 ± 0.9 nM

B3: AT10C (structured_DNA)
DNA: GCCCGTCTTCCAGACAAGAGTGCAGGGCTTTTTTTTTTCAATTGGGCCCGTCCGTATGGTGGGT
Kd (VEGF-165 [3]): 87.3 ± 4.9 nM
Kd (VEGF-165 [4]): 12.1 ± 1.9 nM

B4: CT60C (structured_DNA)
DNA: CAATTGGGCCCGTCCGTATGGTGGGTTTTTTTTTTTTTTTTTTTTTTTTTTTTTTTTTTTTTTTTTTTTTTTTTTTTTTTTTTTTTCAATTGGGCCCGTCCGTATGGTGGGT
Kd (VEGF-165 [2]): 22.4 ± 1 nM

B5: AT60A (structured_DNA)
DNA: GCCCGTCTTCCAGACAAGAGTGCAGGGCTTTTTTTTTTTTTTTTTTTTTTTTTTTTTTTTTTTTTTTTTTTTTTTTTTTTTTTTTTTTGCCCGTCTTCCAGACAAGAGTGCAGGGC
Kd (VEGF-165 [2]): 7 ± 1.5 nM

B6: CT20C (structured_DNA)
DNA: CAATTGGGCCCGTCCGTATGGTGGGTTTTTTTTTTTTTTTTTTTTTCAATTGGGCCCGTCCGTATGGTGGGT
binding signal (VEGF-165 [5]): ~0.35 fraction bound

B7: nfCT100 (structured_DNA)
DNA: CAATTGGGCCCGTCCGTATGGTGGGTTTTTTTTTTTTTTTTTTTTTTTTTTTTTTTTTTTTTTTTTTTTTTTTTTTTTTTTTTTTTTTTTTTTTTTTTTTTTTTTTTTTTTTTTTTTTTTTTT
binding result (VEGF-165 [6]): binds

B8: CT0C (structured_DNA)
DNA: CAATTGGGCCCGTCCGTATGGTGGGTCAATTGGGCCCGTCCGTATGGTGGGT
binding signal (VEGF-165 [5]): ~0.35 fraction bound
Kd (VEGF-165 [3]): 74.8 ± 3.5 nM
Kd (VEGF-165 [4]): 13.6 ± 2.7 nM

B9: CT30A (structured_DNA)
DNA: CAATTGGGCCCGTCCGTATGGTGGGTTTTTTTTTTTTTTTTTTTTTTTTTTTTTTTGCCCGTCTTCCAGACAAGAGTGCAGGGC
binding result (VEGF-165 [7]): binds

B10: CT30C (structured_DNA)
DNA: CAATTGGGCCCGTCCGTATGGTGGGTTTTTTTTTTTTTTTTTTTTTTTTTTTTTTTCAATTGGGCCCGTCCGTATGGTGGGT
binding signal (VEGF-165 [5]): ~0.35 fraction bound

B11: CT10C (structured_DNA)
DNA: CAATTGGGCCCGTCCGTATGGTGGGTTTTTTTTTTTCAATTGGGCCCGTCCGTATGGTGGGT
binding signal (VEGF-165 [5]): ~0.35 fraction bound

B12: CT10A (structured_DNA)
DNA: CAATTGGGCCCGTCCGTATGGTGGGTTTTTTTTTTTGCCCGTCTTCCAGACAAGAGTGCAGGGC
binding result (VEGF-165 [7]): binds

B13: AT0C (structured_DNA)
DNA: GCCCGTCTTCCAGACAAGAGTGCAGGGCCAATTGGGCCCGTCCGTATGGTGGGT
binding result (VEGF-165 [7]): binds

B14: AT30C (structured_DNA)
DNA: GCCCGTCTTCCAGACAAGAGTGCAGGGCTTTTTTTTTTTTTTTTTTTTTTTTTTTTTTCAATTGGGCCCGTCCGTATGGTGGGT
binding result (VEGF-165 [7]): binds

B15: AT20C (structured_DNA)
DNA: GCCCGTCTTCCAGACAAGAGTGCAGGGCTTTTTTTTTTTTTTTTTTTTCAATTGGGCCCGTCCGTATGGTGGGT
binding result (VEGF-165 [7]): binds

B16: AT60C (structured_DNA)
DNA: GCCCGTCTTCCAGACAAGAGTGCAGGGCTTTTTTTTTTTTTTTTTTTTTTTTTTTTTTTTTTTTTTTTTTTTTTTTTTTTTTTTTTTTCAATTGGGCCCGTCCGTATGGTGGGT
binding result (VEGF-165 [8]): binds

CAATTGGGCCCGTCCGTATGGTGGGT (structured_DNA) [fC (SL2-B)]
Kd (VEGF-165 [2]): 37.9 ± 14 nM

B17: CT20A (structured_DNA)
DNA: CAATTGGGCCCGTCCGTATGGTGGGTTTTTTTTTTTTTTTTTTTTTGCCCGTCTTCCAGACAAGAGTGCAGGGC
binding result (VEGF-165 [7]): binds

B18: CT0A (structured_DNA)
DNA: CAATTGGGCCCGTCCGTATGGTGGGTGCCCGTCTTCCAGACAAGAGTGCAGGGC
binding result (VEGF-165 [7]): binds
